In the nanobody polyreactivity screen of Harvey et al. (2022):

Test: yeast display, Sf9 membrane polyspecificity reagent, FACS + sequencing; frameworks hold sequencing errors
Method in brief: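 Polyreactivity labels are assigned by the sorting gate from which each nanobody was recovered. The gates were low and high (top ~1%), set on anti-HA fluorescence for expression and streptavidin fluorescence for reagent binding. Before sorting, galactose-induced (36–48 hours) yeast display cells were stained for 1 hour at 4 °C with 10% biotinylated, detergent-solubilized Sf9 membrane reagent.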

Sequence | polyreactivity (PSR sort gate)
QVQLVESGGGLDQAGGSLRLSCAASGSIFNDNVMGWYRQAPWKERELVAGISRSGTRTYYADSVKGRFTISRDNAKNTVYLQMNSLKPEDTAVYYCAAAYGQARRYNGSQYGSWGQGTQVTVSS | high polyreactivity
QVQLVESGGGLDQAGGSLRLSCAASGSIFPPYAMGWYSQAPGKERELVATITIRGGSTYYADSVKGRFTISRDNAKNTVYLQMNSLKPEDTAVYYCAADYTKYYRRYYYWGQGTQVTVSS | high polyreactivity
QVQLVESGGGLDQAGGSLRLSCAASGSIFYAYAMGWYRQAPGKEREFVAVISRGGITNYADSVKGRFTISRDNAKNTVYLELNSLKPEDTAVYYCAAGTSAWGYLRRYGYWGQGSQVTVSS | low polyreactivity
QVQLVESGGGLDQAGGSLRLSCAASGSIFYDNTMAWYRQAAGKERDLVADISSGDSTYYADSVKGRFTISRDNAKNTVYLQMNSLKPEDTAVYYCNADVYSWVSVKEGDYWGQGTEVTVSS | low polyreactivity
QVQLVESGGGLDQAGGSLRLSCAASGSIFYFYTMGWYRQAPGKEREFVAAINGIGGSTYYADSVKGRFTISRDNAKNTVYLQMNRLKPEDTAVYYCAADAPWFKRNARKYNYWGQGTQVTVSS | low polyreactivity
QVQLVESGGGLDQAGGSLRLSCAASGSIFYPYAMRWYRQAPGKERELVAAISSGGGTNYADSVKGRFTISRDNAKNTVYLQMNSLKPEDTEVYYCNARTGTTWQGYEYDYWGQGTQVTVSS | low polyreactivity
QVQLVESGGGLDQAGGSLRLSCAASGSILDSYTMGWYRQAPGKERELVPAITSDGGSTYYADSVKGRFTISRDNAKNTVYLQMNSLKPEDTAVYYCAKLSRYYGFWYTPDFDYWGQGTQVTVSS | high polyreactivity
QVQLVESGGGLDQAGGSLRLSCAASGSILPYYAMGWYRQAPGKERELVATITDGTDTYYADSVKGRFTFSRDNAKNTVYLQMNSLKQEDTAVYYCDRKQYWGYDYWGQGTQVTVSS | low polyreactivity
QVQLVESGGGLDQAGGSLRLSCAASGSISQVYAMGWYRQATGKERELVAVINDADDTSYADSVKGRFTISRDNAKNTVYLQMNSLKPEDTAVYYCAAESSYFVALTQFYTVEFYYWGQGTQLTVSS | low polyreactivity
QVQLVESGGGLDQAGGSLRLSCAASGSTFANNAMGWYREAPGKERELVAAISSGGSTNYADSVKGRFTISRDNAKNTGYLQMNSLKPEDTAVYYCNADAYDEIKYGYWGQGTQVTVSS | low polyreactivity
QVQLVESGGGLDQAGGSLRLSCAASGSTFQAYARGWYRQAPGKERELVAAISRRSGSTYYADSVKGRFTISRDNAKNTVYLQMNSLKPEDTAVYYCNAGSRRPYDYWGQGTQVTVSS | low polyreactivity
QVQLVESGGGLDQAGGSLRLSCAASGSTFQPYAMGRYRQAPGKEREFVATISGSAGSTYYADSVKGRFKISRDNANYTVYLQMNSLKPEDTAVYYCNADSGWFGYDYWGQGNQVTVSS | low polyreactivity
QVQLVESGGGLDQAGGSLRLSCAASGSTFRWYAMGWYRQAPGKERELVAAISSSGGSTYYADSVKGRFTISRDNAKNTVYLQMNSLKPEDTAVYYCAADFTGPFDYWGQGTQVTVSS | high polyreactivity
QVQLVESGGGLDQAGGSLRLSCAASGSTFSFYAMGWYRQAPGKERELVAAISRSGGCKFYADYVKGRFSISRDNEKNTVYLQMNRLKPEDTAVYYCAAKSAVVVGMDSWGQGTQVTVSS | high polyreactivity
QVQLVESGGGLDQAGGSLRLSCAASGSTFSYNAKGWYRQAPGKERELVAAITYRGSSTYYADSVKGRFTSSRDNAKNTVDLQMNSLKPEDTAVYYCAVSYVRYRGSGLTAFNYWGQGTQVTVSS | high polyreactivity
QVQLVESGGGLDQAGGSLRLSCAASGSTFVANAMGWYRQAPGKERELVAAITYRGGSTYYADSVKGRFTISRDNAKNSVYLQMNSLKPEDTAVYYCNTVYYVASASYYWRYDYWGQGTQVTVSS | high polyreactivity
QVQLVESGGGLDQAGGSLRLSCAASGSTFVFYAMVWYIQAPGKEREFVAAITNSGSNTYYADSVKGRFTISRDNAKMTVNLQMNSLKPEDTAVYYCAARPFGRYRGRYYYWGQGTQVTVSS | high polyreactivity
QVQLVESGGGLDQAGGSLRLSCAASGSTFVGYAMGWYRQAPGKERELVAAISGSGTSTYYADSVKGRFTISRDNAKNTVYLQMNSLKPEDTAVYYCNADPIFVYSSYNYWGQGTQVTVSS | low polyreactivity
QVQLVESGGGLDQAGGSLRLSCAASGSTFVLNAMGWYRQAPGKERDLVAAITSNGGRTYYADSVKGRFTISRDNAKNTVYLQMNSLKPEDTAVYYCNAVKTHRVRVHGWDYGYWGQGTQVTVSS | high polyreactivity
QVQLVESGGGLDQAGGSLRLSCAASGSTFVSNAMGWYRQAPGKERELVAAISKSGGSTYYADSVKGRFTISRDNAKNTVYLQMNSLKPEDTAVYYCAKYNAKSFYGQYDYWGQGTQVTVSS | high polyreactivity
QVQLVESGGGLDQAGGSLRLSCAASGSTFYKYAMGWYRQAPGNERDLVAGISSSGGNTYYADSVKGRFTISRDNAKNTDYLQMNSLKPEDTAVYYCAARPRYLKEYDYWGQGTQVSVSS | high polyreactivity
QVQLVESGGGLDQAGGSLRLSCAASGSTIHYYAMGWYRQAPRKERELVAVISSGGSTYYADSVKGRFTISRDNAKNTVYLQMNSLNPEDTAVYYCAKDYRDYNRGWYDYWGQGTQVTVSS | low polyreactivity

Sequence | polyreactivity (PSR sort gate)
QVQLVESGGGLDQAGGSLRLSCAASGSTSPYYTMGWYRQAPGKERELVASINESGGSTYYADSVKGRFTISRDNAKNTVYLLMNSLKPEDTAVYYCNAEYTTPSYPVYRIDYYWFDYWGQGTQVTVSS | low polyreactivity
QVQLVESGGGLDQAGGSLRLSCAASVFIFAYYAMGWYRQAPGKERELVAAITRHGGSTYDADSVKGRFTISRDNAQNTVYLQMNSLKPEETAVYYCNAYFGWSASRQSYDYWGQGTQVTVSS | high polyreactivity
QVQLVESGGGLDQAGGSLRLSCAASVSTFDAYAMVWSTQAPGQERELVAAISSSAASTSYADSVKGRFTISRDNAKNTVYVQMNSLKPEDTAFYYCAARPYRRPWYRGRYYYWGQGTQVTVSS | high polyreactivity
QVQLVESGGGLDQAGGSLRLSCAAYGSTFAPNAMGGYRQSPGKERELVAAISSGSSTYYADSVKGRFTISRDNAKNTVNLQMNSLKPEDTAVYYCIARGLSSLSTIEDYCGQGTQVTVSS | high polyreactivity
QVQLVESGGGLDQAGGSLRLSCADSGRTFYIYAMGWYRQAPGKERELVAAITSVGSTNYADSVKGRFTISRDNAKNTVYLQMNSLKPEDTAVYYCAAESTEGTSGDYDYWGQGTQVTVSS | low polyreactivity
QVQLVESGGGLDQAGGSLRLSCAPSGYTFNVYSMGWYRQAPGNESELVAGISSYGGSTYYADSVKGRFTISRDNAKNTVYIQMNSLKPEDTAVYYCAARSALYPKYESWGQGTQVTVSS | low polyreactivity
QVQLVESGGGLDQAGGSLRLSFAASGFIFRYYTMGWYRQAPGKERELVAVITRGGSTYYADSVKGRFTISRDNAKNTVYLQMNSLKPEDTAVYYCAADRPGTGYSDYDYWGQGTQVTVSS | high polyreactivity
QVQLVESGGGLDQAGGSLRLSFAASGFTFGYYAMGWYRQEPGKARELVAAITYDGDTTYYADSVKGRITISRDNAKNTVYLQMNSLKPEDTAVYYCNRDVLTFNYDYWGQGTQVTVSS | low polyreactivity
QVQLVESGGGLDQAGGSLRLSSAASGLTFGGNAMGWYRQAPGKERELVAAISWSDDTTDYADSVKGRFTISRDNAKNTVYLQMNSLKPEDTAVYYCAARLPFEHVEYWGQGTQVTVSS | low polyreactivity
QVQLVESGGGLDQAGGSLRLSSAASVSIFRYNTMGWYRPAPGKEREFVDSIRIGGSTYYADSVKGRFTISRDNAKNTVYLQMNSLKPEDTAVYYCAVRPYRSAGGSVTRGAYYYWGQGTQVTVSS | high polyreactivity
QVQLVESGGGLDQAGGSLRLSWAASGFTFKNYTMGWYRQAPGKERELVAAISKSGDITYYADSVKGRFTISRDNAKNTVYLQMNSLKPEDTAVYYCNAPRRNWSYDYWGQGTQVTVSS | high polyreactivity
QVQLVESGGGLDQAGGSLRLTCAASGRTIGSYAMGWYRQAPGKERELVAAISYSGGSTYYADSVKGRFTISRDNAKNTVYLQMNSLKPEDTAVYYCAKSWRYSIIQSYRAGYNYWGQGTQVTVSS | high polyreactivity
QVQLVESGGGLDQAGGSLRLTCAATGRIILGYAMGWYRQAPGKEREFVAANSRGGTSTYYADSVKGRFTISRDNAKNTVYLQMNSLKPEDTAVYYCAVDVPPYRLVRNYYEYDYWGQGTQVTVSS | high polyreactivity
QVQLVESGGGLDQAGGSLRLTWAASGSIFKFYAMGWYRQAPGKERDMVAAISQSGGRTYYADSVKGRFTISRDNAKNSVYLQMNSLKPEDTAVYYCAKSVFPVYGRPSNLWFNYWGQGTQVTVSS | high polyreactivity
QVQLVESGGGLDQAGGTLRLSCAASGSTFSDYAMGWYRQAPGKERQLVAAISVSDGSTYYADSVKGRFTISRDNAKNTVYFQMNSLKPEDTAVYYCAAEYPYFVYSYFRFDYWGQGTQVTVSS | low polyreactivity
QVQLVESGGGLDQAGRSLRLICAASVFTIHAYAMGRYRQAHGKERELVAAISASGGSTYYADSVKGRFTISRDNANNTVYLKMNSLKPEDTAVYYCNAGDYRTFYRRFDYWGQGTQVTVSS | low polyreactivity
QVQLVESGGGLDQAGRSLRLSCAASGFIFYYNAMGWYRQAPGKQRELVAAISSGGSTNYADSVKGRFTISRDNAKNTVYLQMNSLQPEDTAVYYCAKRPTGGYKYYYTTSKYDYWGQGTQVTVSS | low polyreactivity
QVQLVESGGGLDQARGTLRLSCAASGITITLYAMGWYRQTPGKESELVAAISRGGGTTNYADSVKGRFTISRDNAKNTVFLELNSLKPEDNAVYYCAAAYTIYWFSYRVLYYYWGQGTQVTVSS | low polyreactivity
QVQLVESGGGLDQPGGSLRLTWAASGSTFYLYTMGWYRQAHGKERELVARISSSGSTNYADSVKGRFTISRDNAKNAVYLQMNSLKPEDTAVYYCNKDWIYRGYDYWGQATQVTVSS | high polyreactivity
QVQLVESGGGLEQAGGSIRLNCAASGSTFRYNAMGWYRQARGKERELVAAITWSGGSTYFADSVKGRFTISRDNAKHNVYLQMNSLKAEDTAVYYCAKVYFWGALSPYKYDEDYWGQGTQVTVSS | low polyreactivity
QVQLVESGGGLEQAGGSLRLSCAASGRTFQYYTMGLYRQAPGKERELVAAISTGGSTHYSDSVKGRFTISRDNAKNTVYLEMFSLKPVDTAVYYCAALWSRRRSRPRFPGDFWGQGTQLTVSS | high polyreactivity
